Reference: patent publication US20210275685A1 (IMMUNOGEN, published 2021)
Changes are numbered by the printed parent chain. One block for each binder: values may come before it.

Experiments:
[1] = target: T1, His-tagged soluble human ADAM9 (human, UniProt Q13443 206-697); experiment: BIACORE, against antibodies without N54F (Table 3)
T1 construct: also called shADAM9-His; huADAM9-His
T1 sequence: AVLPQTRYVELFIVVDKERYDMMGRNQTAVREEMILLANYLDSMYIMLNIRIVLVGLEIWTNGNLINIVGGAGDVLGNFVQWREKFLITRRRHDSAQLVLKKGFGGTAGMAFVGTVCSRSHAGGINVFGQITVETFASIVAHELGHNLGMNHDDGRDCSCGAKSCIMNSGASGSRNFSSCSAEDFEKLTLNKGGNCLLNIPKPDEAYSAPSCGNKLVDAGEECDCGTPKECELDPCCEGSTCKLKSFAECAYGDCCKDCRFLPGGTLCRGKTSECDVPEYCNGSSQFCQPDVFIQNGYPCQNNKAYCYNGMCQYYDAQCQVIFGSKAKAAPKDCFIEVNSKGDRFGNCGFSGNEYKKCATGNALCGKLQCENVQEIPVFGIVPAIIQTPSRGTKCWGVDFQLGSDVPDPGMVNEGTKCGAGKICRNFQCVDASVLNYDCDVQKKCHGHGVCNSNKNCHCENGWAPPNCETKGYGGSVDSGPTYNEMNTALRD
Excerpt: The relative binding affinity of the humanized/optimized antibodies hMAB-A (1.1), hMAB-A (2.2), hMAB-A (2.3), hMAB-A (3.3), hMAB-A (4.4) and the chimeric chMAB-A (having murine VH/VL Domains) to huADAM was investigated using BIACORE® analysis, in which His-tagged soluble human ADAM9 (“shADAM9-His,” containing an extracellular portion of human ADAM9 fused to a histidine-containing protein) was passed over a surface coated with immobilized antibody. Briefly, each antibody was captured on a Fab2 goat anti-human Fc surface and then incubated in the presence of different concentrations (6.25-100 nM) of the shADAM9-His protein. The kinetics of binding were determined via BIACORE® analysis binding (normalized 1:1 Langmuir binding model). Binding to cynoADAM9 was examined by FACS as described above and by ELISA.

huFcRn = target: T2, huFcRn (Homo sapiens, UniProt P55899); experiment: sensorgram (RU against time) at pH 6.0: FcRn immobilized, antibody injected at 25 nM and 100 nM; responses of about 60-70 RU and about 190 RU
T2 construct: construct not described; also called human neonatal Fc receptor
T2 sequence (P55899 24-297 limits assumed, form in doubt): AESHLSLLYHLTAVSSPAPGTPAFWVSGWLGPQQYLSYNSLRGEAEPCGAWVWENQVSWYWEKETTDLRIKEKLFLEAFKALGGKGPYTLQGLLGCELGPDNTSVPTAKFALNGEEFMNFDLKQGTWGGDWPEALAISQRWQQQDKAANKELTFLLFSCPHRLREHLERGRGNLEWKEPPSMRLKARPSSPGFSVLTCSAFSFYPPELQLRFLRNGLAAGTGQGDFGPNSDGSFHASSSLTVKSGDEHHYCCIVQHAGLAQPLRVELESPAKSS

B1: hMAB-A (2.2) (antibody, V domains shown)
VH: EVQLVESGGGLVKPGGSLRLSCAASGFTFSSYWMHWVRQAPGKGLEWVGEIIPIFGHTNYNEKFKSRFTISLDNSKNTLYLQMGSLRAEDTAVYYCARGGYYYYGSRDYFDYWGQGTTVTVSS
VL: DIVMTQSPDSLAVSLGERATISCKASQSVDYSGDSYMNWYQQKPGQPPKLLIYAASDLESGIPARFSGSGSGTDFTLTISSLEPEDFATYYCQQSHEDPFTFGQGTKLEIK
notes: also called parental hMAB-A (2.2); hMAB-A VH(2)/hMAB-A VL(2)
fold increase in affinity [1]: ~2 fold

B3: hMAB-A (2.3) (antibody, V domains shown)
VH: B1 VH
VL: B1 VL with K24R
notes: human Fc; also called hMAB-A VH(2)/hMAB-A VL(3)
fold increase in affinity [1]: ~2 fold

Now from value to binder:

fold increase in affinity [1]: ~2 fold
B2: hMAB-A (3.3) (antibody, V domains shown)
VH: B1 VH with K63R, K65Q, S66G
VL: B1 VL with K24R
notes: human Fc; also called hMAB-A VH(3)/hMAB-A VL(3)

Kd (huFcRn): 161 nM
B4: hMAB-A (2I.2) (antibody, human IgG1, kappa)
heavy: not shown
light: DIVMTQSPDSLAVSLGERATISCKASQSVDYSGDSYMNWYQQKPGQPPKLLIYAASDLESGIPARFSGSGSGTDFTLTISSLEPEDFATYYCQQSHEDPFTFGQGTKLEIKRTVAAPSVFIFPPSDEQLKSGTASVVCLLNNFYPREAKVQWKVDNALQSGNSQESVTEQDSKDSTYSLSSTLTLSKADYEKHKVYACEVTHQGLSSPVTKSFNRGEC
notes: also called MAB-A VH(2I); MAB-A VH(2I.2)
